{
  "source": "the RNAGym collection of RNA variant scans (doi:10.7554/elife.80360)",
  "parents": {"B1": {"name": "HDV Ribozyme (parent)", "chain": "GGCCGGCAUGGUCCCAGCCUCCUCGCUGGCGCCGGCUGGGCAACAUUCCGAGGGGACCGUCCCCUCGGUAAUGGCGAAUGGGACCCA"}},
  "data": [
    {"variants_of": "B1", "experiment": "self-cleavage, relative activity (ratio to wild type); higher = more cleavage; co-transcriptional", "values": [
      {"variant": "G6A U37G", "self-cleavage": 0.128},
      {"variant": "G6U C14A", "self-cleavage": 0.0692},
      {"variant": "G6U C14U", "self-cleavage": 0.682},
      {"variant": "G6U C14G", "self-cleavage": 0.166},
      {"variant": "G6C U65G", "self-cleavage": 0.115},
      {"variant": "G6U G81U", "self-cleavage": 0.154},
      {"variant": "G6U G81C", "self-cleavage": 0.196},
      {"variant": "G6U G81A", "self-cleavage": 0.0997},
      {"variant": "G6C U23A", "self-cleavage": 0.0615},
      {"variant": "G6C U23C", "self-cleavage": 0.0639},
      {"variant": "G6C U23G", "self-cleavage": 0},
      {"variant": "G6C G53A", "self-cleavage": 0.233},
      {"variant": "G6C C36U", "self-cleavage": 0.175},
      {"variant": "G6C C36G", "self-cleavage": 0.158},
      {"variant": "G6C A56G", "self-cleavage": 0.453},
      {"variant": "G6C A56U", "self-cleavage": 0.214},
      {"variant": "G6C U46G", "self-cleavage": 0},
      {"variant": "G6C U46A", "self-cleavage": 0},
      {"variant": "G6C C84U", "self-cleavage": 0.0573},
      {"variant": "G6C C84A", "self-cleavage": 0.332},
      {"variant": "G6C C84G", "self-cleavage": 0.138},
      {"variant": "G6U G54C", "self-cleavage": 0.383},
      {"variant": "G6U G54U", "self-cleavage": 0.643},
      {"variant": "G6A G29A", "self-cleavage": 0.0959},
      {"variant": "G6A C58G", "self-cleavage": 0.68},
      {"variant": "G6A C58U", "self-cleavage": 0.702},
      {"variant": "G6A G76C", "self-cleavage": 0.764},
      {"variant": "G6U C21U", "self-cleavage": 0.122},
      {"variant": "G6C A51U", "self-cleavage": 0.469},
      {"variant": "G6C A51G", "self-cleavage": 0.222},
      {"variant": "G6A U12C", "self-cleavage": 0.277},
      {"variant": "G6U G40U", "self-cleavage": 0.633},
      {"variant": "G6U C33G", "self-cleavage": 0.196},
      {"variant": "G6U C33U", "self-cleavage": 0.217},
      {"variant": "G6U C33A", "self-cleavage": 0.0332},
      {"variant": "G6C A16U", "self-cleavage": 0.199},
      {"variant": "G6C A77U", "self-cleavage": 0.145},
      {"variant": "G6C G28U", "self-cleavage": 0},
      {"variant": "G6C G28A", "self-cleavage": 0.0545},
      {"variant": "G6A U46G", "self-cleavage": 0.229},
      {"variant": "G6U C22U", "self-cleavage": 0.136},
      {"variant": "G6U C22G", "self-cleavage": 0.0489},
      {"variant": "G6U U46C", "self-cleavage": 0.133},
      {"variant": "G6U U46A", "self-cleavage": 0.0755},
      {"variant": "G6U U46G", "self-cleavage": 0.123},
      {"variant": "G6U A87U", "self-cleavage": 0.591},
      {"variant": "G6U G28U", "self-cleavage": 0.104},
      {"variant": "G6C C19U", "self-cleavage": 0.0773},
      {"variant": "G6U C84G", "self-cleavage": 0.0923},
      {"variant": "G6U C7U", "self-cleavage": 0.151},
      {"variant": "G6U C63G", "self-cleavage": 0.268},
      {"variant": "G6A G55C", "self-cleavage": 0.791},
      {"variant": "G6C G38U", "self-cleavage": 0.203},
      {"variant": "G6C A43C", "self-cleavage": 0.0519},
      {"variant": "C7A A43G", "self-cleavage": 0},
      {"variant": "G6C G25A", "self-cleavage": 0.0898},
      {"variant": "G6C G25C", "self-cleavage": 0},
      {"variant": "G6C U79C", "self-cleavage": 0.0405},
      {"variant": "G6A G73A", "self-cleavage": 0.256},
      {"variant": "G6C C32U", "self-cleavage": 0.63},
      {"variant": "G6C C32G", "self-cleavage": 1.1},
      {"variant": "G6C C64G", "self-cleavage": 0.344},
      {"variant": "G6C C64A", "self-cleavage": 0.594},
      {"variant": "G6C C64U", "self-cleavage": 0.244},
      {"variant": "G6C U37G", "self-cleavage": 0.0923},
      {"variant": "G6C C85U", "self-cleavage": 0.401},
      {"variant": "G6A C36G", "self-cleavage": 0.0811},
      {"variant": "G6A C36U", "self-cleavage": 0.286},
      {"variant": "G6A C36A", "self-cleavage": 0},
      {"variant": "C7A A45U", "self-cleavage": 0.332},
      {"variant": "G6C G82U", "self-cleavage": 0.122},
      {"variant": "G6U C75A", "self-cleavage": 0.0875},
      {"variant": "G6C U60A", "self-cleavage": 0.231},
      {"variant": "G6A G10C", "self-cleavage": 0.249},
      {"variant": "G6A C75U", "self-cleavage": 0.193},
      {"variant": "G6A C75A", "self-cleavage": 0.17},
      {"variant": "G6A C75G", "self-cleavage": 0.0369},
      {"variant": "G6C G54U", "self-cleavage": 0.231},
      {"variant": "G6U A77U", "self-cleavage": 0.158},
      {"variant": "G6U A77G", "self-cleavage": 0.302},
      {"variant": "G6C G59A", "self-cleavage": 0.492},
      {"variant": "G6C G59C", "self-cleavage": 0.277},
      {"variant": "G6A U69G", "self-cleavage": 0.689},
      {"variant": "G6U G55C", "self-cleavage": 0.495},
      {"variant": "G6U G55A", "self-cleavage": 0.59},
      {"variant": "G6U G55U", "self-cleavage": 0.942},
      {"variant": "G6C G29A", "self-cleavage": 0},
      {"variant": "G6C G29C", "self-cleavage": 0.161},
      {"variant": "G6A G50A", "self-cleavage": 0.785},
      {"variant": "G6A G68U", "self-cleavage": 0.691},
      {"variant": "G6A G68C", "self-cleavage": 0.604},
      {"variant": "G6U C62U", "self-cleavage": 1},
      {"variant": "G6A G35U", "self-cleavage": 0.148},
      {"variant": "G6A C61A", "self-cleavage": 0.695},
      {"variant": "G6U U69A", "self-cleavage": 0.415},
      {"variant": "G6U U69C", "self-cleavage": 0.655},
      {"variant": "G6U U69G", "self-cleavage": 0.375},
      {"variant": "G6C U47C", "self-cleavage": 0.453},
      {"variant": "G6A G82U", "self-cleavage": 0.188},
      {"variant": "G6C U72G", "self-cleavage": 0.229},
      {"variant": "G6A C33G", "self-cleavage": 0.0536},
      {"variant": "G6A G38U", "self-cleavage": 0.0923},
      {"variant": "G6U C61A", "self-cleavage": 0.717},
      {"variant": "G6A G52U", "self-cleavage": 0.694},
      {"variant": "G6U U60G", "self-cleavage": 0.346},
      {"variant": "G6U U60A", "self-cleavage": 0.571},
      {"variant": "G6U G76U", "self-cleavage": 0.731},
      {"variant": "G6U G76A", "self-cleavage": 0.708},
      {"variant": "G6C G40C", "self-cleavage": 0.175},
      {"variant": "G6C G40U", "self-cleavage": 0.0536},
      {"variant": "G6U A56C", "self-cleavage": 0.665},
      {"variant": "G6C A83U", "self-cleavage": 0.0692},
      {"variant": "G6C A83C", "self-cleavage": 0.0875},
      {"variant": "C7A", "self-cleavage": 0.644},
      {"variant": "G6C C86U", "self-cleavage": 0.403},
      {"variant": "G6U A51G", "self-cleavage": 0.475},
      {"variant": "G6U A51C", "self-cleavage": 0.656},
      {"variant": "G6U C13A", "self-cleavage": 0.0875},
      {"variant": "G6U C13G", "self-cleavage": 0},
      {"variant": "G6A U23C", "self-cleavage": 0.532},
      {"variant": "G6A U23G", "self-cleavage": 0.342},
      {"variant": "G6U C36G", "self-cleavage": 0},
      {"variant": "G6U C36U", "self-cleavage": 0.227},
      {"variant": "G6U U27A", "self-cleavage": 0.453},
      {"variant": "G6C G73C", "self-cleavage": 0},
      {"variant": "G6C G73A", "self-cleavage": 0.0723},
      {"variant": "G6A C66G", "self-cleavage": 0.456},
      {"variant": "G6A C30U", "self-cleavage": 0.432},
      {"variant": "G6U G53U", "self-cleavage": 0.643},
      {"variant": "G6U C19U", "self-cleavage": 0.0489},
      {"variant": "G6U U47A", "self-cleavage": 0.482},
      {"variant": "G6U U47C", "self-cleavage": 0.467},
      {"variant": "G6C C63G", "self-cleavage": 0.246},
      {"variant": "G6C C63A", "self-cleavage": 0.582},
      {"variant": "G6A G11U", "self-cleavage": 0.095},
      {"variant": "G6A G11C", "self-cleavage": 0.222},
      {"variant": "G6C C24G", "self-cleavage": 0.151},
      {"variant": "G6C C24U", "self-cleavage": 0},
      {"variant": "G6U U79C", "self-cleavage": 0.123},
      {"variant": "G6U U79A", "self-cleavage": 0.246},
      {"variant": "G6A G54C", "self-cleavage": 0.672},
      {"variant": "G6U A70U", "self-cleavage": 0.46},
      {"variant": "G6U A70C", "self-cleavage": 0.135},
      {"variant": "G6U G59A", "self-cleavage": 0.544},
      {"variant": "G6U G59U", "self-cleavage": 0.69},
      {"variant": "G6U G59C", "self-cleavage": 0.475},
      {"variant": "G6C U12G", "self-cleavage": 0},
      {"variant": "G6C U12C", "self-cleavage": 0.123},
      {"variant": "G6U A83C", "self-cleavage": 0.0852},
      {"variant": "G6C C61G", "self-cleavage": 0.222},
      {"variant": "G6C U27C", "self-cleavage": 0.0923},
      {"variant": "G6C A87G", "self-cleavage": 0.288},
      {"variant": "G6U A71G", "self-cleavage": 0.399},
      {"variant": "G6U A71C", "self-cleavage": 0.123},
      {"variant": "C7A A71C", "self-cleavage": 0.298},
      {"variant": "C7A A71G", "self-cleavage": 0.584},
      {"variant": "C7A A71U", "self-cleavage": 0.462},
      {"variant": "G6A G28C", "self-cleavage": 0},
      {"variant": "G6A G28U", "self-cleavage": 0.0573},
      {"variant": "G6A G39U", "self-cleavage": 0.317},
      {"variant": "G6A G39C", "self-cleavage": 0.0415},
      {"variant": "G6A U65G", "self-cleavage": 0.506},
      {"variant": "G6A U65A", "self-cleavage": 0.54},
      {"variant": "G6C C48A", "self-cleavage": 0.443},
      {"variant": "G6C C48G", "self-cleavage": 0.199},
      {"variant": "G6U U12A", "self-cleavage": 0},
      {"variant": "G6U U12C", "self-cleavage": 0.0573}
    ]}
  ]
}
